Tests used:
[1] = biological target: phospho-Thr^286-αCaMKII (mouse) (UniProt P11798); assay: fluorescence polarisation
calmodulin (CaM) = assay: FL-CaM fluorescence polarisation; conditions: reference: αCaMKII with Ca2+/FL-CaM, no ATP; sites T286

Sequence of αCaMKII (P11798 whole entry, looked up, change not shown): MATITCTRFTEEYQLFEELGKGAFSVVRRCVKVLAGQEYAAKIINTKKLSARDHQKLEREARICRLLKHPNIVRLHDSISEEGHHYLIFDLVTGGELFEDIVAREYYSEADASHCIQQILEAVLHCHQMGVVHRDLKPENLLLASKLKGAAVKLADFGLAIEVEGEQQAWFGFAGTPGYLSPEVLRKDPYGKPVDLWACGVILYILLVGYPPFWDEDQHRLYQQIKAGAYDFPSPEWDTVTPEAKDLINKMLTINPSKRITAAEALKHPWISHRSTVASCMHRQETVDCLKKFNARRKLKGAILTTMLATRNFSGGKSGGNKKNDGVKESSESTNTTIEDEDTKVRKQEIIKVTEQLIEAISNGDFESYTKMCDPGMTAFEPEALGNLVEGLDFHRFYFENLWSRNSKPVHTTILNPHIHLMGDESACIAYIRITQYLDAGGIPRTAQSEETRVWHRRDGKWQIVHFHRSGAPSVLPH
Sequence of phospho-Thr^286-αCaMKII (mouse) (P11798 whole entry): as the sequence (P11798 whole entry, looked up, change not shown) above

Substance	rate constant of CaM dissociation (polarization, slow phase) after EGTA [1] [s⁻¹]	other: fluorescence polarisation of FL-CaM (calmodulin (CaM))
Lys^75-FL-calmodulin (FL-CaM) (from UniProt P0DP23 1-149) (natural protein)	0.02	–
αCaMKII (from UniProt P11798) αCaMKII with Ca2+/FL-CaM and ATP (autophosphorylated)	–	stronger; reference 0.33
